Data reported in the supplement of paper PMC5998384.

How the values were obtained:
[1] = test system: HeLa Kyoto; assay: solubility in G1/S (NP-40 vs SDS abundance) (log2 ratio); higher = more soluble; settings: cell cycle stage: G1/S
[2] = test system: HeLa Kyoto; assay: solubility change mitosis vs G1/S (difference of NP-40 vs SDS log2 ratios) (log2 ratio difference); higher = more soluble in mitosis
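Wherever solubility change mitosis vs G1/S (difference of NP-40 vs SDS log2 ratios) is given: synchronized HeLa Kyoto cells (double thymidine block for G1/S, nocodazole release for mitosis), protein amounts in NP-40 versus SDS lysates quantified by mass spectrometry, three biological replicates.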
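Wherever solubility in G1/S (NP-40 vs SDS abundance) is given: HeLa Kyoto cells arrested at G1/S by double thymidine block, proteins quantified by TMT10plex mass spectrometry in mild NP-40 versus SDS extracts, three biological replicates.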

Sequence of JAG2 (chain, as listed by the source): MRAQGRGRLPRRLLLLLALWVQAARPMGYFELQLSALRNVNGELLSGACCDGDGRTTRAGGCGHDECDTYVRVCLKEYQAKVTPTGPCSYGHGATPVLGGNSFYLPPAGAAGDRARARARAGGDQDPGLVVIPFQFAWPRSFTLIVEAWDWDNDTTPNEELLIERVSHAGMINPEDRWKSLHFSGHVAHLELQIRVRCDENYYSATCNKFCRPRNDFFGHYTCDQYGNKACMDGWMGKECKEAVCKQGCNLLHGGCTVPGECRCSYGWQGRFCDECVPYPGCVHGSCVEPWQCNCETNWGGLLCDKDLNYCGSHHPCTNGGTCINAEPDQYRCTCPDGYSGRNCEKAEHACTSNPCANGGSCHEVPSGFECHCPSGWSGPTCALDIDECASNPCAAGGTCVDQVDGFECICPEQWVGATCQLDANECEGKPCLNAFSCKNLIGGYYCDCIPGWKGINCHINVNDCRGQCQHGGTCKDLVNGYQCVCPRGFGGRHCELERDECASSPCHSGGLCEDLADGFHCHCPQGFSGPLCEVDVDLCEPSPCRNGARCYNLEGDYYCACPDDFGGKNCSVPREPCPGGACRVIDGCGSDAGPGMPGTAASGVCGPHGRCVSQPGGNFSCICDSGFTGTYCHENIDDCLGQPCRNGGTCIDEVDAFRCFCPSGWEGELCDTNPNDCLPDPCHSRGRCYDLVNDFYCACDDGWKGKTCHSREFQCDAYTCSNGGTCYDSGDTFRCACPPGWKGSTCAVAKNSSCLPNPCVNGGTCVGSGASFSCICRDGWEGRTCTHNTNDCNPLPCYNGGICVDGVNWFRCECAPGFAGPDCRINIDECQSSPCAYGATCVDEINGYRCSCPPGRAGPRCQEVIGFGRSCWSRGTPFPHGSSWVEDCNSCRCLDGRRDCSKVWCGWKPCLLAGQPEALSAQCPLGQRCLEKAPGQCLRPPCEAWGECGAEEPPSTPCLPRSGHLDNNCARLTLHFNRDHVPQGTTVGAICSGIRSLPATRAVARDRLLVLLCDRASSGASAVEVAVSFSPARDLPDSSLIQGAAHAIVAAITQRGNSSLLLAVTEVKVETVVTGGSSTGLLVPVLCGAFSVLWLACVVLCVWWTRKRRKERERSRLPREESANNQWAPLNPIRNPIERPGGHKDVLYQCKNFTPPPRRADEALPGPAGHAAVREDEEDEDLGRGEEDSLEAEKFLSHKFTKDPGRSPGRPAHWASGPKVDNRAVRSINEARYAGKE

Substance | solubility in G1/S (log2) [1] | solubility change mitosis (log2) [2]
MPPLKSPAAFHEQRRSLERARTEDYLKRKIRSRPERSELVRMHILEETSAEPSLQAKQLKLKRARLADDLNEKIAQRPGPMELVEKNILPVESSLKEAIIVGQVNYPKVADSSSFDEDSSDALSPEQPASHESQGSVPSPLEARVSEPLLSATSASPTQVVSQLPMGRDSREMLFLAEQPPLPPPPLLPPSLTNGTTIPTAKSTPTLIKQSQPKSASEKSQRSKKAKELKPKVKKLKYHQYIPPDQKQDRGAPPMDSSYAKILQQQQLFLQLQILNQQQQQHHNYQAILPAPPKSAGEALGSSGTPPVRSLSTTNSSSSSGAPGPCGLARQNSTSLTGKPGALPANLDDMKVAELKQELKLRSLPVSGTKTELIERLRAYQDQISPVPGAPKAPAATSILHKAGEVVVAFPAARLSTGPALVAAGLAPAEVVVATVASSGVVKFGSTGSTPPVSPTPSERSLLSTGDENSTPGDTFGEMVTSPLTQLTLQASPLQILVKEEGPRAGSCCLSPGGRAELEGRDKDQMLQEKDKQIEALTRMLRQKQQLVERLKLQLEQEKRAQQPAPAPAPLGTPVKQENSFSSCQLSQQPLGPAHPFNPSLAAPATNHIDPCAVAPGPPSVVVKQEALQPEPEPVPAPQLLLGPQGPSLIKGVAPPTLITDSTGTHLVLTVTNKNADSPGLSSGSPQQPSSQPGSPAPAPSAQMDLEHPLQPLFGTPTSLLKKEPPGYEEAMSQQPKQQENGSSSQQMDDLFDILIQSGEISADFKEPPSLPGKEKPSPKTVCGSPLAAQPSPSAELPQAAPPPPGSPSLPGRLEDFLESSTGLPLLTSGHDGPEPLSLIDDLHSQMLSSTAILDHPPSPMDTSELHFVPEPSSTMGLDLADGHLDSMDWLELSSGGPVLSLAPLSTTAPSLFSTDFLDGHDLQLHWDSCL [MKL1] | 0.297 | -0.244
MATPRGRTKKKASFDHSPDSLPLRSSGRQAKKKATETTDEDEDGGSEKKYRKCEKAGCTATCPVCFASASERCAKNGYTSRWYHLSCGEHFCNECFDHYYRSHKDGYDKYTTWKKIWTSNGKTEPSPKAFMADQQLPYWVQCTKPECRKWRQLTKEIQLTPQIAKTYRCGMKPNTAIKPETSDHCSLPEDLRVLEVSNHWWYSMLILPPLLKDSVAAPLLSAYYPDCVGMSPSCTSTNRAAATGNASPGKLEHSKAALSVHVPGMNRYFQPFYQPNECGKALCVRPDVMELDELYEFPEYSRDPTMYLALRNLILALWYTNCKEALTPQKCIPHIIVRGLVRIRCVQEVERILYFMTRKGLINTGVLSVGADQYLLPKDYHNKSVIIIGAGPAGLAAARQLHNFGIKVTVLEAKDRIGGRVWDDKSFKGVTVGRGAQIVNGCINNPVALMCEQLGISMHKFGERCDLIQEGGRITDPTIDKRMDFHFNALLDVVSEWRKDKTQLQDVPLGEKIEEIYKAFIKESGIQFSELEGQVLQFHLSNLEYACGSNLHQVSARSWDHNEFFAQFAGDHTLLTPGYSVIIEKLAEGLDIQLKSPVQCIDYSGDEVQVTTTDGTGYSAQKVLVTVPLALLQKGAIQFNPPLSEKKMKAINSLGAGIIEKIALQFPYRFWDSKVQGADFFGHVPPSASKRGLFAVFYDMDPQKKHSVLMSVIAGEAVASVRTLDDKQVLQQCMATLRELFKEQEVPDPTKYFVTRWSTDPWIQMAYSFVKTGGSGEAYDIIAEDIQGTVFFAGEATNRHFPQTVTGAYLSGVREASKIAAF [KDM1B] | -0.371 | 0.0563
MTQDRPLLAVQEALKKCFPVVEEQQGLWQSALRDCQPLLSSLSNLAEQLQAAQNLRFEDVPALRAFPDLKERLRRKQLVAGDIVLDKLGERLAILLKVRDMVSSHVERVFQIYEQHADTVGIDAVLQPSAVSPSVADMLEWLQDIERHYRKSYLKRKYLLSSIQWGDLANIQALPKAWDRISKDEHQDLVQDILLNVSFFLEE [C1ORF109] | 0.0701 | 0.16
JAG2 | -0.54 | 0.351
MGQCVTKCKNPSSTLGSKNGDREPSNKSHSRRGAGHREEQVPPCGKPGGDILVNGTKKAEAATEACQLPTSSGDAGRESKSNAEESSLQRLEELFRRYKDEREDAILEEGMERFCNDLCVDPTEFRVLLLAWKFQAATMCKFTRKEFFDGCKAISADSIDGICARFPSLLTEAKQEDKFKDLYRFTFQFGLDSEEGQRSLHREIAIALWKLVFTQNNPPVLDQWLNFLTENPSGIKGISRDTWNMFLNFTQVIGPDLSNYSEDEAWPSLFDTFVEWEMERRKREGEGRGALSSGPEGLCPEEQT [DCUN1D3] | 0.0421 | -0.131
PHRF1 | -0.629 | 0.566
